Assay results as given in patent US20260151494A1 (ARO BIOTHERAPEUTICS, published 2026).
Changes are numbered by the printed parent chain.

B1: CD71-binding FN3 domain SEQ ID NO 404 (designed binder)
chain: MLPAPKNLVVSRVTEDSARLSWTAPDAAFDSFFIGYLEPQPPGEAIHLLVPGSERSYDLTGLKPGTEYNVTIQGVKGGFPSEPLLAIVTT
B2: CD71-binding FN3 domain SEQ ID NO 426 (designed binder)
chain: B1 chain with H47F, E82M, L85S, V88F
B3: CD71-binding FN3 domain SEQ ID NO 412 (designed binder)
chain: B1 chain with H47G, E82H, I87V, V88F
B4: CD71-binding FN3 domain SEQ ID NO 419 (designed binder)
chain: B1 chain with H47A, E82S, L85N, I87Y, V88F
B5: CD71-binding FN3 domain SEQ ID NO 408 (designed binder)
chain: B1 chain with H47G, L49W, E82M, L85S, V88F
B6: CD71-binding FN3 domain SEQ ID NO 413 (designed binder)
chain: B1 chain with H47Y, L49R, E82A, L85H, I87H, V88F
B7: CD71-binding FN3 domain SEQ ID NO 411 (designed binder)
chain: B1 chain with H47S, L49F, E82V, L85S, I87T, V88F
B8: CD71-binding FN3 domain SEQ ID NO 428 (designed binder)
chain: B1 chain with H47S, L49Y, E82N, L85I, I87Q, V88F
B9: CD71-binding FN3 domain SEQ ID NO 430 (designed binder)
chain: B1 chain with H47D, L49W, E82Y, L85S, I87S, V88F
B10: CD71-binding FN3 domain SEQ ID NO 423 (designed binder)
chain: B1 chain with H47A, L49Y, L85V, I87T, V88F
B11: CD71-binding FN3 domain SEQ ID NO 436 (designed binder)
chain: B1 chain with L85W, I87K, V88F
B12: CD71-binding FN3 domain SEQ ID NO 431 (designed binder)
chain: B1 chain with H47V, L49F, E82N, L85S, V88S
B13: CD71-binding FN3 domain SEQ ID NO 421 (designed binder)
chain: B1 chain with H47D, L49W, E82M, L85E, I87V, V88F
notes: The cell prints '42'
B14: CD71-binding FN3 domain SEQ ID NO 434 (designed binder)
chain: B1 chain with H47G, L49Q, E82D, L85Q, V88F
B15: CD71-binding FN3 domain SEQ ID NO 424 (designed binder)
chain: B1 chain with L49I, E82D, L85D, I87S, V88F
B16: CD71-binding FN3 domain SEQ ID NO 409 (designed binder)
chain: B1 chain with L49F, E82N, L85S, I87Q, V88F
B17: CD71-binding FN3 domain SEQ ID NO 432 (designed binder)
chain: B1 chain with H47A, L49Y, E82G, L85E, I87Y, V88F
B18: CD71-binding FN3 domain SEQ ID NO 414 (designed binder)
chain: B1 chain with L49Y, E82H, L85I, I87N, V88F
B19: CD71-binding FN3 domain SEQ ID NO 420 (designed binder)
chain: B1 chain with L49Q, Q73H, F79I, E82M, L85S, I87K, V88F
B20: CD71-binding FN3 domain SEQ ID NO 416 (designed binder)
chain: B1 chain with H47A, L49Y, E82L, L85V, I87T, V88F
B21: CD71-binding FN3 domain SEQ ID NO 405 (designed binder)
chain: B1 chain with L49W, E82L, L85S, I87F, V88F
B22: CD71-binding FN3 domain SEQ ID NO 425 (designed binder)
chain: B1 chain with H47G, E82N, L85S, V88F
B23: CD71-binding FN3 domain SEQ ID NO 437 (designed binder)
chain: B1 chain with H47S, L49W, E82T, L85S, I87K, V88F
B24: CD71-binding FN3 domain SEQ ID NO 415 (designed binder)
chain: B1 chain with L49Q, E82M, L85S, V88F
B25: CD71-binding FN3 domain SEQ ID NO 417 (designed binder)
chain: B1 chain with H47Q, L49F, E82D, L85V, I87S, V88F
B26: CD71-binding FN3 domain SEQ ID NO 433 (designed binder)
chain: B1 chain with H47A, L49Y, E82L, L85E, I87N, V88F
B27: CD71-binding FN3 domain SEQ ID NO 435 (designed binder)
chain: B1 chain with H47A, L49W, E82H, L85A, I87V, V88F
B28: CD71-binding FN3 domain SEQ ID NO 422 (designed binder)
chain: B1 chain with H47S, E82H, L85D, I87S, V88F
B29: CD71-binding FN3 domain SEQ ID NO 410 (designed binder)
chain: B1 chain with H47A, L49W, E82Q, L85H, I87H, V88F
B30: CD71-binding FN3 domain SEQ ID NO 427 (designed binder)
chain: B1 chain with L49R, E82D, L85I, I87V, V88F

Target: T1, human apical domain of CD71 (human, UniProt P02786 189-383, limits assumed)
T1 construct: domain: apical domain
Assay: primary ELISA; also: test concentration or dose not given here

T1 sequence (P02786 189-383 limits assumed): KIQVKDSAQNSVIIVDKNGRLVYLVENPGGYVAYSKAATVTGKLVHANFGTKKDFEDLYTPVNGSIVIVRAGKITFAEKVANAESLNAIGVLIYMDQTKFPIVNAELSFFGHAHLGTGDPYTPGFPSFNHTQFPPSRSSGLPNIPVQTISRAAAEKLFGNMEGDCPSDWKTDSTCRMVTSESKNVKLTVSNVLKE

| RLU [RLU] | Binder |
| --- | --- |
| 5.66e+06 | B1 |
| 5.95e+06 | B2 |
| 6e+06 | B3 |
| 4.59e+06 | B4 |
| 3.23e+06 | B5 |
| 4.98e+06 | B6 |
| 6.36e+06 | B7 |
| 5.9e+06 | B8 |
| 3.58e+06 | B9 |
| 6.56e+06 | B10 |
| 5.66e+06 | B11 |
| 4.35e+06 | B12 |
| 4.2e+06 | B13 |
| 4.03e+06 | B14 |
| 5.16e+06 | B15 |
| 6.2e+06 | B16 |
| 3.11e+06 | B17 |
| 6.18e+06 | B18 |
| 3.93e+06 | B19 |
| 6.32e+06 | B20 |
| 3.47e+06 | B21 |
| 6.23e+06 | B22 |
| 2.82e+06 | B23 |
| 3.61e+06 | B24 |
| 6.17e+06 | B25 |
| 3.57e+06 | B26 |
| 5.5e+06 | B27 |
| 5.88e+06 | B28 |
| 3.2e+06 | B29 |
| 3.52e+06 | B30 |

Target: T2, human CD71 extracellular domain (human, UniProt P02786 89-760)
T2 construct: also called hCD71; CD71-ECD
Assay: primary ELISA; also: test concentration or dose not given here

T2 sequence (P02786 89-760): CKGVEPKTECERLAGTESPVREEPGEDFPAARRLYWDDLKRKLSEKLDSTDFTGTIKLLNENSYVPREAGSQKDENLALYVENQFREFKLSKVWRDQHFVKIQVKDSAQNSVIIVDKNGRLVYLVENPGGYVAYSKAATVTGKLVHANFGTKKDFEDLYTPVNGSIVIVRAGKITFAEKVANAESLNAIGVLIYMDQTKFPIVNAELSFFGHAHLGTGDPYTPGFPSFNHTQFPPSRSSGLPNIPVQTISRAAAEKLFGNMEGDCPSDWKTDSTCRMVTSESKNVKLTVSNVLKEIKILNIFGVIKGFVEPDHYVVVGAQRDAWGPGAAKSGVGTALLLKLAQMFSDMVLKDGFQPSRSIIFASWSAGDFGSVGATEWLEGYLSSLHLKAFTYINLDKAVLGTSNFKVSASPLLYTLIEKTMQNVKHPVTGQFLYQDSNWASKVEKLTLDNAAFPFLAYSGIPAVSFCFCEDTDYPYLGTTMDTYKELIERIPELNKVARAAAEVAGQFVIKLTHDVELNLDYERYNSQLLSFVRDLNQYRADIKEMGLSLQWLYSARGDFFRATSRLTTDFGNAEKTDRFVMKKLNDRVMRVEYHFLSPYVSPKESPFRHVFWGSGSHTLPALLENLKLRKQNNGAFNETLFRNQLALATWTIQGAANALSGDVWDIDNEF

| RLU [RLU] | Binder |
| --- | --- |
| 4.72e+06 | B1 |
| 4.43e+06 | B2 |
| 4.37e+06 | B3 |
| 3.6e+06 | B4 |
| 2.26e+06 | B5 |
| 3.86e+06 | B6 |
| 5.23e+06 | B7 |
| 6.19e+06 | B8 |
| 3.64e+06 | B9 |
| 6.63e+06 | B10 |
| 4.46e+06 | B11 |
| 4.4e+06 | B12 |
| 1.76e+06 | B13 |
| 3.13e+06 | B14 |
| 3.9e+06 | B15 |
| 4.91e+06 | B16 |
| 3.73e+06 | B17 |
| 6.71e+06 | B18 |
| 3.2e+06 | B19 |
| 6.6e+06 | B20 |
| 1.95e+06 | B21 |
| 4.44e+06 | B22 |
| 3.22e+06 | B23 |
| 3.51e+06 | B24 |
| 4.51e+06 | B25 |
| 3.26e+06 | B26 |
| 3.62e+06 | B27 |
| 2.97e+06 | B28 |
| 3.9e+06 | B29 |
| 2.25e+06 | B30 |

Target: T1, human apical domain of CD71
Assay: primary ELISA; signal over HSA control; as to RLU: test concentration or dose not given here

| Apical domain:HSA [ratio] | Binder |
| --- | --- |
| 146 | B1 |
| 176 | B2 |
| 153 | B3 |
| 269 | B4 |
| 165 | B5 |
| 370 | B6 |
| 318 | B7 |
| 186 | B8 |
| 124 | B9 |
| 57 | B10 |
| 288 | B11 |
| 88 | B12 |
| 398 | B13 |
| 403 | B14 |
| 155 | B15 |
| 284 | B16 |
| 79 | B17 |
| 79 | B18 |
| 495 | B19 |
| 52 | B20 |
| 193 | B21 |
| 347 | B22 |
| 147 | B23 |
| 516 | B24 |
| 417 | B25 |
| 184 | B26 |
| 319 | B27 |
| 340 | B28 |
| 379 | B29 |
| 612 | B30 |

Target: T2, human CD71 extracellular domain
Assay: primary ELISA; signal over HSA control; as to RLU: test concentration or dose not given here

| hCD71:HSA [ratio] | Binder |
| --- | --- |
| 122 | B1 |
| 13 | B2 |
| 112 | B3 |
| 211 | B4 |
| 116 | B5 |
| 287 | B6 |
| 261 | B7 |
| 195 | B8 |
| 126 | B9 |
| 58 | B10 |
| 227 | B11 |
| 89 | B12 |
| 167 | B13 |
| 313 | B14 |
| 117 | B15 |
| 225 | B16 |
| 94 | B17 |
| 86 | B18 |
| 402 | B19 |
| 54 | B20 |
| 108 | B21 |
| 247 | B22 |
| 168 | B23 |
| 501 | B24 |
| 305 | B25 |
| 169 | B26 |
| 210 | B27 |
| 171 | B28 |
| 46 | B29 |
| 392 | B30 |
